These results are taken from patent US20240368668A1, “SUBSTRATES AND BIOMARKERS OF ADAMTS7” (The Broad Institute, Inc., priority 2021, published 2024).

Square brackets hold non-standard residues; d marks the D form. Ends that are not written are not given here.

The target in one test is T1, mouse ADAMTS7 (Mus musculus, UniProt Q68SA9).
T1 construct: Full-length mouse Adamts7 1-1857 (Uniprot Q68SA9, WT or E373Q catalytic mutant); expressed in transfected cells; host or cells: Human Coronary Artery Smooth Muscle Cells (HCA-SMC, Lonza), adenovirus 50 MOI
T1 sequence (Q68SA9 221-1657): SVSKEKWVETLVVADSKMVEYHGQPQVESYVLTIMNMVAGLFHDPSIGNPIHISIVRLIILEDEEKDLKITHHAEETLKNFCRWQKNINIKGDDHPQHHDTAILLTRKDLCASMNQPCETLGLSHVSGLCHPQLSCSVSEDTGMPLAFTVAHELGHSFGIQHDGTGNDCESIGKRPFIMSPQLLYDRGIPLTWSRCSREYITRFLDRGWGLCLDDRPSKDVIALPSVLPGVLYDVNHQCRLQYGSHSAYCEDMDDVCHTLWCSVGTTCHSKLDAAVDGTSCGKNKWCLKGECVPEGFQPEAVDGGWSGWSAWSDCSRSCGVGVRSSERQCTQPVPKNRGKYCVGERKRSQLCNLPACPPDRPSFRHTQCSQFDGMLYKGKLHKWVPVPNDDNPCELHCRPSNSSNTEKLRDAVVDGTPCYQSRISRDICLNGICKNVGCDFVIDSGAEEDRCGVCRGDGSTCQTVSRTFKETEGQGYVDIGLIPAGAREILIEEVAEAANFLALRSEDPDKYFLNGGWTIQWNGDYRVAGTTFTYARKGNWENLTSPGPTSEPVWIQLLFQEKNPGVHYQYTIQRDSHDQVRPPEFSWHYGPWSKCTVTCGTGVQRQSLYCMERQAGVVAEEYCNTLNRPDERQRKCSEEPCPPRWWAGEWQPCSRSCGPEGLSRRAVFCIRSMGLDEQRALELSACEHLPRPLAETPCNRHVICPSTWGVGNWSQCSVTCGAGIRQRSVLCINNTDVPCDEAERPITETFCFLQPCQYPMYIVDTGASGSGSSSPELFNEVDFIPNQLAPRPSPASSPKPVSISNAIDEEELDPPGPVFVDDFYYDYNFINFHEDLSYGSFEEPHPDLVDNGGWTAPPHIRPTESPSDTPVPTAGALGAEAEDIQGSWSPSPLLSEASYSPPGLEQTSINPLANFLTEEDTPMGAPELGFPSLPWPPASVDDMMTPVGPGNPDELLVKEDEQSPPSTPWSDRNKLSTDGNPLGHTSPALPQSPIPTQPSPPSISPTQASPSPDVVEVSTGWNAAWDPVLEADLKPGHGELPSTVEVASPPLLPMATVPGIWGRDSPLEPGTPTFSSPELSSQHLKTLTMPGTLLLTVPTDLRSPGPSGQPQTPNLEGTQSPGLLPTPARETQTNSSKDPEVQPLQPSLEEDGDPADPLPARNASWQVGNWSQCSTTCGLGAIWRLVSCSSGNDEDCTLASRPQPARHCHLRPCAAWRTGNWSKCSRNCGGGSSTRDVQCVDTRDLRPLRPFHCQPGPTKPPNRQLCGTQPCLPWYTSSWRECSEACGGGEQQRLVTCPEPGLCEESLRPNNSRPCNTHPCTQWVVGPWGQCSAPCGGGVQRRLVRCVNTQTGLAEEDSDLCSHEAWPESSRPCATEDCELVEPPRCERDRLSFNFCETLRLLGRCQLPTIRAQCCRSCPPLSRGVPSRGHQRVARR
The test can be described thus: TMT10 TAILS N-terminomics, SMC2 experiment (process replicates, trypsin/AspN digest). It is filed as cell-based. The conditions noted are these: SMC2_TAILS HC; log fold change of N-terminal peptide, Ad-mADAMTS7 WT over Luc. The essentials:
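Full-length mouse ADAMTS7 (WT or E373Q mutant, C-terminal 3xFLAG) or luciferase was transduced via adenovirus, 50 MOI, into HCA-SMC (SMC1, SMC2) or HUVEC. SMC1: pooled media, technical triplicates 400 ug; SMC2: process triplicates 300 ug; HUVEC: process triplicates 200 ug, bFGF2 10 ng/ml.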
Turning to “VCAN_3367 (FKNSSSAK; listed as Homo sapiens)”, the logFC.mWT.over.Luc is given as 0.79.
Consider “VIM_276 (YESVAAKNLQ; listed as Homo sapiens)”, for which the logFC.mWT.over.Luc was 0.88.
Take “VIM_322 (QVQSLTCEV; listed as Homo sapiens)”: the logFC.mWT.over.Luc turned out to be 1.01.
“ZSCAN4_25 (FQQSQGPAVQR; listed as Homo sapiens)” had a logFC.mWT.over.Luc of 2.79.

Staying with this test, now noted: SMC2_TAILS HC; log fold change, mWT over Luc.
Substance “HEG1_51 (GLELQLER; listed as Homo sapiens)” yielded a logFC.mWT.over.Luc of 0.90.
The substance “HEG1_224 (FQTKSGTAS; listed as Homo sapiens)” showed a logFC.mWT.over.Luc of 3.54.
As to “KCND1_436 (RLAKSGTTNAFLQYKQNGGLE; listed as Homo sapiens)”, the logFC.mWT.over.Luc is 1.60.
Regarding “KRT28_2 (SLQFSNGSR; listed as Homo sapiens)”, the logFC.mWT.over.Luc stood at 1.88.
Consider “LASP1_182 (SYGGYKEPAAPVSIQR; listed as Homo sapiens)”, for which the logFC.mWT.over.Luc was determined as 0.87.
With “LOXL1_157 (SVSASAFASTYR; listed as Homo sapiens)”, the logFC.mWT.over.Luc was 2.71.
Substance “LOX_60 (LGSQYQPQR; listed as Homo sapiens)” yielded a logFC.mWT.over.Luc of 1.25.
In the case of “LOX_125 (FQAGYSTSR; listed as Homo sapiens)”, the logFC.mWT.over.Luc is reported as 3.45.

Staying with this test, now noted: log fold change, ADAMTS7 WT over luciferase.
As to “QSOX1_558 (VAAAPELAMGALELESR; listed as Homo sapiens)”, the logFC.mWT.over.Lux is recorded as 0.94.
As to “SDC4_106 (LEENEVIPKR; listed as Homo sapiens)”, the logFC.mWT.over.Lux came to 1.32.
“SERPINH1_27 (AAAPGTAEKLSPKAATLAER; listed as Homo sapiens)” displayed a logFC.mWT.over.Lux of 2.62.
The same measure, in the same setting: with “SMOC1_35 (LISDRDPQCNLHCSR; listed as Homo sapiens)” the figure was 1.75; with “SPOCK1_126 (HWVGPSNLVK; listed as Homo sapiens)”, 1.29; with “SRGN_50 (LEEKGPMFELLPGESNKIPR; listed as Homo sapiens)”, 3.21.
Substance “SRGN_51 (EEKGPMFELLPGESNKIPR; listed as Homo sapiens)” yielded a logFC.mWT.over.Lux of 1.66.
Same read-out and setting: with “SRGN_60 (LPGESNKIPR; listed as Homo sapiens)” the figure was 3.57; with “SRGN_62 (GESNKIPR; listed as Homo sapiens)”, 2.82; with “STC1_37 (QNSAEVVR; listed as Homo sapiens)”, 4.56.
For the substance “STC2_239 (HGEAGHHLPEPSSR; listed as Homo sapiens)”, the logFC.mWT.over.Lux amounted to 1.59.
Substance “STC2_244 (HHLPEPSSR; listed as Homo sapiens)” had a logFC.mWT.over.Lux of 1.09.
With “TGFBI_24 (GPAKSPYQLVLQHSR; listed as Homo sapiens)”, the logFC.mWT.over.Lux is 0.77.
Consider “TGFBI_43 ([code q]HGPNVCAVQKVIGTNR; not fully specified; listed as Homo sapiens)”, for which the logFC.mWT.over.Lux is 0.85.
Same read-out and setting: with “TGFBI_50 (AVQKVIGTNR; listed as Homo sapiens)” the figure was 0.96; with “TGFBI_208 (GIVTVNCAR; listed as Homo sapiens)”, 0.89.
Still for that read-out and setting: as for “TGFBI_276 (TLLAPT[code n]EAFEKIPSETLNR; not fully specified; listed as Homo sapiens)”, the figure is 0.75; as for “TGFBI_497 (VLTPPMGTVMDVLKGDNR; not fully specified (residue 6); listed as Homo sapiens)”, 0.75; as for “TGFBI_524 (SAGLTETLNR; listed as Homo sapiens)”, 0.84.
“TGFBI_534 (EGVYTVFAPTNEAFR; listed as Homo sapiens)” displayed a logFC.mWT.over.Lux of 0.91.
As for “TG_1017 (GASALLR; listed as Homo sapiens)”, the logFC.mWT.over.Lux came out at 4.08.
Still for that read-out and setting: as for “THBS1_972 (QNDPNWVVR; listed as Homo sapiens)”, the figure is 3.55.
Consider “TLN1_1501 (HTSALCNSCR; listed as Homo sapiens)”, for which the logFC.mWT.over.Lux amounted to 1.31.
“TMEM132A_52 (LLDAPEHFR; listed as Homo sapiens)” yielded a logFC.mWT.over.Lux of 2.65.
The substance “VASN_138 (HIQPGAFDTLDR; listed as Homo sapiens)” displayed a logFC.mWT.over.Lux of 1.63.
Same read-out and setting: with “VASP_229 (AIAGAKLR; listed as Homo sapiens)” the figure was 4.48; with “VIM_433 (LVDTHSKR; listed as Homo sapiens)”, 2.91.
